Experimental data taken from patent US20110293599A1 (EWHA UNIVERSITY INDUSTRY COLLABORATION FOUNDATION, published 2011).
One block for each binder: values may come before it.

Experiments:
[1] = target: T1, Myc-tagged MyoD, full length 318 aa (FL) (UniProt P10085 1-318); assay: co-immunoprecipitation from 293T cells, Flag-M2 beads, MyoD immunoblot
T1 construct: Overexpressed in 293T cells; also called MyoD FL; not shown: Myc tag from the pCMV-Myc vector
T1 sequence (looked up): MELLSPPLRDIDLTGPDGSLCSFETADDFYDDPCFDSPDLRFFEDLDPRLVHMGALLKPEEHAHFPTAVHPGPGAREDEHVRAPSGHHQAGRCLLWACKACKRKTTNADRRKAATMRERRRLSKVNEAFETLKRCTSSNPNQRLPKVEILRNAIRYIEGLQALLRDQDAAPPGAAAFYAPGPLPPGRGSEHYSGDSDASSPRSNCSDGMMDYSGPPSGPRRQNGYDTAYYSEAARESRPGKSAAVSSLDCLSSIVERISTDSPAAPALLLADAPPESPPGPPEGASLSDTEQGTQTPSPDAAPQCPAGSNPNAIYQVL

[2] = target: T2, Flag-tagged TAZ (transcriptional coactivator with PDZ-binding motif), full length (1-395 aa) (Mus musculus (Mouse), UniProt Q9EPK5 1-395); assay: co-immunoprecipitation from 293T cells, Flag-M2 beads, immunoblot
T2 construct: also called TAZ FL; Flag-TAZ; not shown: Flag tag

binding result [1]: no binding
B1: TAZ truncation ΔN2 (aa 164-395 TAZ), lacking the WW domain (other)
chain: NHVNLHPSITSTSVPQRSMAVSQPNLAMNHQHQQVVATSLSPQNHPTQNQPTGLMSVPNALTTQQQQQQKLRLQRIQMERERIRMRQEELMRQEAALCRQLPMETETMAPVNTPAMSTDMRSVTNSSSDPFLNGGPYHSREQSTDSGLGLGCYSVPTTPEDFLSNMDEMDTGENSGQTPMTVNPQQTRFPDFLDCLPGTNVDLGTLESEDLIPLFNDVESALNKSEPFLTWL
notes: Cotransfected with MyoD into 293T cells; not shown: Flag tag, implied by the precipitation with Flag-M2 beads

binding result [2]: no binding
B2: NT MyoD (MyoD aa 1-102), Myc-tagged (other, UniProt P10085 1-102, looked up)
chain: MELLSPPLRDIDLTGPDGSLCSFETADDFYDDPCFDSPDLRFFEDLDPRLVHMGALLKPEEHAHFPTAVHPGPGAREDEHVRAPSGHHQAGRCLLWACKACK
notes: Coexpressed with Flag-TAZ in 293T cells; not shown: Myc tag from the pCMV-Myc vector
